Laboratory results published in patent US7648964B2, “Use of lacritin in promoting ocular cell survival” (University of Virginia Patent Foundation, priority 2004, dated 2010).

Experiments:
[1] = system: NFAT; test: NFAT changes by Western blotting in HSG cells; assay type: cell-based, human
Source text: There has been more evidence regarding PKC alpha translocation and NFAT activation.

[2] = system: 48 kDa band in HSG cells; test: Tyrosine phosphorylation of 48 kDa band, HSG cells; assay type: cell-based, human
Method: (§1) Freshly isolated rat lacrimal acinar cells, and HSG (human salivary gland) ductal and HCE (human corneal epithelial) cell lines were used to study lacritin function. For secretion studies, rat acinar cells were plated serum-free overnight on wells co-coated with 0.05 μM laminin 1 (to ensure adhesion) and 0 to 20 μM lacritin, or alternatively with laminin-1 (0.05 μM) and treated the next day with serum-free medium containing 0 to 162 ng/ml of soluble lacritin for four hours. Unstimulated and stimulated (carbachol 10^−4 M/VIP 10^−8 M) secretions were then collected, assessed (peroxidase assay) and normalized to μg cellular DNA. To study tyrosine phosphorylation, overnight serum-free cultures of both rat lacrimal acinar and HSG cells were washed and treated with 10 ng/ml of soluble lacritin for 0.5, 2.5, 10, and 30 minutes. Py(20) anti-phosphotyrosine antibody immunoprecipitation of cell lysates was then examined in Western blots of 7% SDS PAGE gels using Py(20) and ECL for detection. […] Using an inverted Zeiss 510 LSM for visualization, 50 second baseline images were first recorded. While the laser was running, lacritin was added (final concentration 4 and 40 ng/ml) and the response continually monitored every 786 msec for a minimum of 200 sec.

[3] = system: RelA (p65); test: Nuclear translocation of NF-kappaB subunit RelA (p65) in HSG cells; assay type: cell-based, human
Source text: Nuclear translocation of this transcription factor has also been observed after lacritin treatment. Very little RelA was initially observed in the nuclear compartment in resting HSG cells.

[4] = system: rat lacrimal acinar cells; test: Secretion by freshly isolated rat lacrimal acinar cells (peroxidase assay); assay type: cell-based
Method: as §1, with “minutes.” for “minutes. Py(20) anti-phosphotyrosine antibody immunoprecipitation of cell lysates was then examined in Western blots of 7% SDS PAGE gels using Py(20) and ECL for detection.”
Lacritin function of three types of epithelial cells was assessed in serum-free cultures of: 1) lacrimal acinar; 2) salivary ductal; and 3) corneal epithelial cells using secretion (acinar), proliferation (ductal), tyrosine phosphorylation (acinar, ductal) and calcium signaling (corneal epithelial) assays. […]

[5] = system: human epidermal (A431) cells; test: 3H-thymidine uptake mitogenesis assay; assay type: cell-based
[6] = system: mouse fibroblast (NIH/3T3) cells; test: 3H-thymidine uptake mitogenesis assay; assay type: cell-based
[7] = system: human glioma (U-251-MG) cells; test: 3H-thymidine uptake mitogenesis assay; assay type: cell-based; details: even at higher doses
[8] = system: human glioma (U-1242-MG) cells; test: 3H-thymidine uptake mitogenesis assay; assay type: cell-based; details: even at higher doses
[9] = system: HSG cells; test: FACS analysis of apoptosis (sub G0/G1) of HSG cells in nutrient depleted medium; assay type: cell-based, human
Method: HSG cells were cultured for different times in alpha-MEM medium, with or without lacritin (0.4 nM), then fixed with ice-old 70% ethanol and stained with propidium iodide at saturating condition, and examined by FACS. FIG. 3A is a bar graph of the resulting data plotting the number of cells entering apoptosis (the sub G0/G1 population) vs. time. After 24 hrs, cells without lacritin show very large DNA fragmentation or apoptosis. FIGS. 3B and 3C are graphic representations of flow cytometry readings showing that significant DNA fragmentation occurs in the cells cultured in the absence of lacritin (a sub G0/G1 population is indicated as a left shoulder of the large peak of FIG. 3B) but not present in FIG. 3C).
Subsequent flow cytometry (FACS) analysis was carried out to monitoring the time course of cell death and survival promotion function of lacritin. […] Lacritin protected cells from death in nutrient depleted medium (alpha MEM) up to 96 hours or longer. Cells cultured in the absence of lacritin undergo apoptosis starting at about 24 hours and over 50% cells are apoptotic after 48 hours of culture.

`Cn1c2ccccc2c2c3c(c4c5ccccc5n(CCC#N)c4c21)CNC3=O` [Go 6976] was tested, and the “effect on lacritin-induced changes of NFAT” value [1] was “abolish changes of NFAT”.

B1: lacritin: recombinant human lacritin from E. coli; mature 119 residue fragment (SEQ ID NO:10) of native lacritin SEQ ID NO:4 (protein, listed as Homo sapiens)
chain: EDASSDSTGADPAQEAGTSKPNEEISGPAEPASPPETTTTAQETSAAAVQGTAKVTSSRQELNPLKSIVEKSILLTEQALAKAGKGMHGGVPGGKQFIENGSEFAQKLLKKFSLLKPWA
B1 was tested, and the “tyrosine phosphorylation of a 48 kDa band” value [2] was “promoted the transient tyrosine phosphorylation”, the “nuclear RelA at 4 hours” value ([3]; 4 hours after initial contact with lacritin) was “high level of RelA was still observed” and the “time of peak nuclear RelA” value ([3]; lacritin treatment) was “between 15 minutes to 1 hour”. The “time to detectable RelA in nucleus” value ([3]; lacritin treatment) was 1 min, the stimulated secretory pathways ([4]; activated by agonists carbachol and VIP) was “no effect” and the unstimulated secretion ([4]; coated and soluble lacritin, serum-free) was “enhanced unstimulated secretion in a dose-dependent manner”. The mitogenesis [5] was “not mitogenic”, the mitogenesis [6] was “not mitogenic” and the mitogenesis [7] was “not mitogenic”. For the same molecule, the mitogenesis [8] was “not mitogenic”, the DNA fragmentation ([9]; lacritin 10 ng/ml, alpha MEM) was “no noticeable DNA fragmentation” and the “duration of protection from death” value ([9]; nutrient depleted medium (alpha MEM)) was ≥ 96 h.
